Measurements: US20170266254A1 (AILERON THERAPEUTICS, published 2017)
Bridges are numbered along the chain shown (N, C = ends). [ ]: non-standard residue; d: D form. S5 = C=CCCC[C@](C)(N)C(=O)O

T1: C-terminally 6x Histidine-tagged Beta-Catenin (aa 134-668, 59 KD) (UniProt P35222 134-668)
T1 construct: range 134-668; Armadillo repeat region
T1 sequence: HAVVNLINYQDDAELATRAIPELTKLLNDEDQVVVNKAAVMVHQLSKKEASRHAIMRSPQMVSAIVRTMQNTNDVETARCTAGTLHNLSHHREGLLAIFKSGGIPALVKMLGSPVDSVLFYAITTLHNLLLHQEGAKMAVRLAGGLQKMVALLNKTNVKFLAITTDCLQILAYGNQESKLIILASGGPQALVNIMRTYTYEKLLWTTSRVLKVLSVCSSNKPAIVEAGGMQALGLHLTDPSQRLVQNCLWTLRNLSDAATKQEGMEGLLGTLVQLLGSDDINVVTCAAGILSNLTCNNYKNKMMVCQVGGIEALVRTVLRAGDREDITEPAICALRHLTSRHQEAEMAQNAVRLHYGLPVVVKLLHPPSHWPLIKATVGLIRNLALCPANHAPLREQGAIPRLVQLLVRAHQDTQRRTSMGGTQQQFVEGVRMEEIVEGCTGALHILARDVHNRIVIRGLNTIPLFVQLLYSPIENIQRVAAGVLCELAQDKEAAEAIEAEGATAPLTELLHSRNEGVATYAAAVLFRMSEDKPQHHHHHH

B1: SP28 (peptide)
peptide: Ac-LGANDELISFKDEG[S5]QEE[S5]SSNNSSAERDLADVKSSLV-NH2
modifications: staple 15-19
SMILES: CC[C@H](C)[C@H](NC(=O)[C@H](CC(C)C)NC(=O)[C@H](CCC(=O)O)NC(=O)[C@H](CC(=O)O)NC(=O)[C@H](CC(N)=O)NC(=O)[C@H](C)NC(=O)CNC(=O)[C@H](CC(C)C)NC(C)=O)C(=O)N[C@@H](CO)C(=O)N[C@@H](Cc1ccccc1)C(=O)N[C@@H](CCCCN)C(=O)N[C@@H](CC(=O)O)C(=O)N[C@@H](CCC(=O)O)C(=O)NCC(=O)N[C@@]1(C)CCCC=CCCC[C@@](C)(C(=O)N[C@@H](CO)C(=O)N[C@@H](CO)C(=O)N[C@@H](CC(N)=O)C(=O)N[C@@H](CC(N)=O)C(=O)N[C@@H](CO)C(=O)N[C@@H](CO)C(=O)N[C@@H](C)C(=O)N[C@@H](CCC(=O)O)C(=O)N[C@@H](CCCNC(=N)N)C(=O)N[C@@H](CC(=O)O)C(=O)N[C@@H](CC(C)C)C(=O)N[C@@H](C)C(=O)N[C@@H](CC(=O)O)C(=O)N[C@H](C(=O)N[C@@H](CCCCN)C(=O)N[C@@H](CO)C(=O)N[C@@H](CO)C(=O)N[C@@H](CC(C)C)C(=O)N[C@H](C(N)=O)C(C)C)C(C)C)NC(=O)[C@H](CCC(=O)O)NC(=O)[C@H](CCC(=O)O)NC(=O)[C@H](CCC(N)=O)NC1=O
B2: SP38 (peptide)
peptide: LGANDELISFADEGAQEEKSSNNSSAEADLAAVKSSLV
modifications: not fully specified; N-terminal acetyl; C-terminal amide; $ = (S)-alpha-(2'-pentenyl)alanine at positions 11 and 15 (first crosslink) and 28 and 32 (second crosslink), each pair joined by an all-carbon crosslinker with one double bond
B3: SP31 (peptide)
peptide: Ac-LGANDELISFKDEGEQEEKSSENSSAE[S5]DLA[S5]VKSSLV-NH2
modifications: staple 28-32
SMILES: CC[C@H](C)[C@H](NC(=O)[C@H](CC(C)C)NC(=O)[C@H](CCC(=O)O)NC(=O)[C@H](CC(=O)O)NC(=O)[C@H](CC(N)=O)NC(=O)[C@H](C)NC(=O)CNC(=O)[C@H](CC(C)C)NC(C)=O)C(=O)N[C@@H](CO)C(=O)N[C@@H](Cc1ccccc1)C(=O)N[C@@H](CCCCN)C(=O)N[C@@H](CC(=O)O)C(=O)N[C@@H](CCC(=O)O)C(=O)NCC(=O)N[C@@H](CCC(=O)O)C(=O)N[C@@H](CCC(N)=O)C(=O)N[C@@H](CCC(=O)O)C(=O)N[C@@H](CCC(=O)O)C(=O)N[C@@H](CCCCN)C(=O)N[C@@H](CO)C(=O)N[C@@H](CO)C(=O)N[C@@H](CCC(=O)O)C(=O)N[C@@H](CC(N)=O)C(=O)N[C@@H](CO)C(=O)N[C@@H](CO)C(=O)N[C@@H](C)C(=O)N[C@@H](CCC(=O)O)C(=O)N[C@@]1(C)CCCC=CCCC[C@@](C)(C(=O)N[C@H](C(=O)N[C@@H](CCCCN)C(=O)N[C@@H](CO)C(=O)N[C@@H](CO)C(=O)N[C@@H](CC(C)C)C(=O)N[C@H](C(N)=O)C(C)C)C(C)C)NC(=O)[C@H](C)NC(=O)[C@H](CC(C)C)NC(=O)[C@H](CC(=O)O)NC1=O
B4: SP30 (peptide)
peptide: Ac-LGANDELISFKDEGEQEEKSSENSSA[S5]RDL[S5]DVKSSLV-NH2
modifications: staple 27-31
SMILES: CC[C@H](C)[C@H](NC(=O)[C@H](CC(C)C)NC(=O)[C@H](CCC(=O)O)NC(=O)[C@H](CC(=O)O)NC(=O)[C@H](CC(N)=O)NC(=O)[C@H](C)NC(=O)CNC(=O)[C@H](CC(C)C)NC(C)=O)C(=O)N[C@@H](CO)C(=O)N[C@@H](Cc1ccccc1)C(=O)N[C@@H](CCCCN)C(=O)N[C@@H](CC(=O)O)C(=O)N[C@@H](CCC(=O)O)C(=O)NCC(=O)N[C@@H](CCC(=O)O)C(=O)N[C@@H](CCC(N)=O)C(=O)N[C@@H](CCC(=O)O)C(=O)N[C@@H](CCC(=O)O)C(=O)N[C@@H](CCCCN)C(=O)N[C@@H](CO)C(=O)N[C@@H](CO)C(=O)N[C@@H](CCC(=O)O)C(=O)N[C@@H](CC(N)=O)C(=O)N[C@@H](CO)C(=O)N[C@@H](CO)C(=O)N[C@@H](C)C(=O)N[C@@]1(C)CCCC=CCCC[C@@](C)(C(=O)N[C@@H](CC(=O)O)C(=O)N[C@H](C(=O)N[C@@H](CCCCN)C(=O)N[C@@H](CO)C(=O)N[C@@H](CO)C(=O)N[C@@H](CC(C)C)C(=O)N[C@H](C(N)=O)C(C)C)C(C)C)NC(=O)[C@H](CC(C)C)NC(=O)[C@H](CC(=O)O)NC(=O)[C@H](CCCNC(=N)N)NC1=O
B5: SP29 (peptide)
peptide: Ac-LGANDELISFKDEGE[S5]EEK[S5]SNNSSAERDLADVKSSLV-NH2
modifications: staple 16-20
SMILES: CC[C@H](C)[C@H](NC(=O)[C@H](CC(C)C)NC(=O)[C@H](CCC(=O)O)NC(=O)[C@H](CC(=O)O)NC(=O)[C@H](CC(N)=O)NC(=O)[C@H](C)NC(=O)CNC(=O)[C@H](CC(C)C)NC(C)=O)C(=O)N[C@@H](CO)C(=O)N[C@@H](Cc1ccccc1)C(=O)N[C@@H](CCCCN)C(=O)N[C@@H](CC(=O)O)C(=O)N[C@@H](CCC(=O)O)C(=O)NCC(=O)N[C@@H](CCC(=O)O)C(=O)N[C@@]1(C)CCCC=CCCC[C@@](C)(C(=O)N[C@@H](CO)C(=O)N[C@@H](CC(N)=O)C(=O)N[C@@H](CC(N)=O)C(=O)N[C@@H](CO)C(=O)N[C@@H](CO)C(=O)N[C@@H](C)C(=O)N[C@@H](CCC(=O)O)C(=O)N[C@@H](CCCNC(=N)N)C(=O)N[C@@H](CC(=O)O)C(=O)N[C@@H](CC(C)C)C(=O)N[C@@H](C)C(=O)N[C@@H](CC(=O)O)C(=O)N[C@H](C(=O)N[C@@H](CCCCN)C(=O)N[C@@H](CO)C(=O)N[C@@H](CO)C(=O)N[C@@H](CC(C)C)C(=O)N[C@H](C(N)=O)C(C)C)C(C)C)NC(=O)[C@H](CCCCN)NC(=O)[C@H](CCC(=O)O)NC(=O)[C@H](CCC(=O)O)NC1=O
B6: SP48 (peptide)
peptide: Ac-LGANDELISF[S5]DQG[S5]QEQKSSENSSA[S5]RDL[S5]NVKSSLV-NH2
modifications: staple 11-15, 27-31
SMILES: CC[C@H](C)[C@H](NC(=O)[C@H](CC(C)C)NC(=O)[C@H](CCC(=O)O)NC(=O)[C@H](CC(=O)O)NC(=O)[C@H](CC(N)=O)NC(=O)[C@H](C)NC(=O)CNC(=O)[C@H](CC(C)C)NC(C)=O)C(=O)N[C@@H](CO)C(=O)N[C@@H](Cc1ccccc1)C(=O)N[C@@]1(C)CCCC=CCCC[C@@](C)(C(=O)N[C@@H](CCC(N)=O)C(=O)N[C@@H](CCC(=O)O)C(=O)N[C@@H](CCC(N)=O)C(=O)N[C@@H](CCCCN)C(=O)N[C@@H](CO)C(=O)N[C@@H](CO)C(=O)N[C@@H](CCC(=O)O)C(=O)N[C@@H](CC(N)=O)C(=O)N[C@@H](CO)C(=O)N[C@@H](CO)C(=O)N[C@@H](C)C(=O)N[C@@]2(C)CCCC=CCCC[C@@](C)(C(=O)N[C@@H](CC(N)=O)C(=O)N[C@H](C(=O)N[C@@H](CCCCN)C(=O)N[C@@H](CO)C(=O)N[C@@H](CO)C(=O)N[C@@H](CC(C)C)C(=O)N[C@H](C(N)=O)C(C)C)C(C)C)NC(=O)[C@H](CC(C)C)NC(=O)[C@H](CC(=O)O)NC(=O)[C@H](CCCNC(=N)N)NC2=O)NC(=O)CNC(=O)[C@H](CCC(N)=O)NC(=O)[C@H](CC(=O)O)NC1=O
B7: SP47 (peptide)
peptide: Ac-LGANDELISF[S5]DEG[S5]QEEKSSENSSA[S5]RDL[S5]NVKSSLV-NH2
modifications: staple 11-15, 27-31
SMILES: CC[C@H](C)[C@H](NC(=O)[C@H](CC(C)C)NC(=O)[C@H](CCC(=O)O)NC(=O)[C@H](CC(=O)O)NC(=O)[C@H](CC(N)=O)NC(=O)[C@H](C)NC(=O)CNC(=O)[C@H](CC(C)C)NC(C)=O)C(=O)N[C@@H](CO)C(=O)N[C@@H](Cc1ccccc1)C(=O)N[C@@]1(C)CCCC=CCCC[C@@](C)(C(=O)N[C@@H](CCC(N)=O)C(=O)N[C@@H](CCC(=O)O)C(=O)N[C@@H](CCC(=O)O)C(=O)N[C@@H](CCCCN)C(=O)N[C@@H](CO)C(=O)N[C@@H](CO)C(=O)N[C@@H](CCC(=O)O)C(=O)N[C@@H](CC(N)=O)C(=O)N[C@@H](CO)C(=O)N[C@@H](CO)C(=O)N[C@@H](C)C(=O)N[C@@]2(C)CCCC=CCCC[C@@](C)(C(=O)N[C@@H](CC(N)=O)C(=O)N[C@H](C(=O)N[C@@H](CCCCN)C(=O)N[C@@H](CO)C(=O)N[C@@H](CO)C(=O)N[C@@H](CC(C)C)C(=O)N[C@H](C(N)=O)C(C)C)C(C)C)NC(=O)[C@H](CC(C)C)NC(=O)[C@H](CC(=O)O)NC(=O)[C@H](CCCNC(=N)N)NC2=O)NC(=O)CNC(=O)[C@H](CCC(=O)O)NC(=O)[C@H](CC(=O)O)NC1=O

Biological target: T1, C-terminally 6x Histidine-tagged …
Assay: competitive fluorescence polarization, FAM-labelled linear probe as competitor, His-tagged beta-catenin 134-668
Experimental: The following experiments are performed at room temperature unless otherwise noted. First, an assay buffer is prepared composed of 25 mM Tris-Hcl pH 7.5, 200 mM Sodium Chloride, and 5 mM CHAPS. Next, 1M DTT is added to assay buffer to a final concentration of 2 mM. […] Forty μl of this protein stock is added to all but six wells of a 96 well plate (which will serve as the free peptide and Blank). Test competitor peptides are diluted from 1 mM DMSO stocks to 2× working stocks in assay buffer. Further dilutions are made in assay buffer-DMSO as to maintain a constant DMSO concentration in all wells. The dilution is carried out such that the peptides have a working concentration range of 40 μM-0.7 μM (2×). As a benchmark, a linear, non-crosslinked peptide competitor is prepared as above but with a working concentration range of 13-0.7 μM. Fifty μl of the competitor 2× stocks are added to the 40 μl of protein solution previously transferred into the assay 96 well plate. Next, a 10× stock of the fluorescent probe is prepared. The probe is identical to the linear benchmark peptide except for the n-terminal conjugation of a FAM flourophore with Beta-Alanine spacer. A 1 mM DMSO stock of the probe is serially diluted to a final concentration of 25 nM (10×) and 10 μl of this stock is added to all wells except for those that will serve as the blank. The assay plate is stored in the dark and the reaction is allowed to run at room temperature for three hours. The reaction is then read on a Biotek Synergy 2 with the following settings: 100 ms delay, 40 measurements per well, with excitation filters of […], and emission filters of […]. Data is then analyzed in Graphpad Prism.

Binder | IC50
B1 | 158 nM
B2 | 83 nM
B3 | 248 nM
B4 | 98 nM
B5 | 223 nM
B6 | 461 nM
B7 | 176 nM
